These results are taken from publication PMC6219920 (Developmental cell, 2018).

The experiment deals with wild type CENP-A complexed with histone H4 (human, UniProt P49450 1-140; P62805 1-103). As to the kind of experiment: pull-down.

B1: MBP-HJURP^1−208 (domain or fragment)
chain: MLGTLRAMEGEDVEDDQLLQKLRASRRRFQRRMQRLIEKYNQPFEDTPVVQMATLTYETPQGLRIWGGRLIKERNEGEIQDSSMKPADRTDGSVQAAAWGPELPSHRTVLGADSKSGEVDATSDQEESVAWALAPAVPQSPLKNELRRKYLTQVDILLQGAEYFECAGNRAGRDVRVTPLPSLASPAVPAPGYCSRISRKSPGDPAKP
B1: the binding result is listed as “binds”.
